This series is described as follows: label from the status in PepcDB records.

As for “MKQPTLAVIMTCHNRRNTTLACLQALYQQKNHFDVYLTDDGSTDGTAEFIKAEYPDVKIFQGDGNLFWVGGMHLAFGEAIKNQYDYYLWLNDDTFLEADALEKLLQVHENLAVEGYGQSIVVGSTQDPITKQATYGGAVKSKKWYSNKFEFLEPTSDVQKCDAMYGNCVLIPHSVTLKVGNIDTAFIHSLGDLDYALRARNLGCHVWVAPGYIGTCNKNSVRNSWVDTKLPVLERLRKILQIKGFPLKPWTTFCSRHSGPFWIFYWFLPYIRAIIGYKNLATSPTFSEDPKETKPEV”, the protein production result is listed as “failed”. With “MKREEYLKNYLESYLRKKEVSLTEEEFNVILREFLRFAYNPEESGQEIADTADGSKTLIHKTYGEPYHSQTAGAIRESLYKFVRPSRILEKAKERKVIRILDVGFGLGYNLAVALKHLWEVNPKLRVEIISFEKELLKEFPILPEPYREIHEFLLERVPEYEGERLSLKVLLGDARKRIKEVENFKADAVFHDAFSPYKNPELWTLDFLSLIKERIDEKGYWVSYSSSLSVRKSLLTLGFKVGSSREIGRKRKGTVASLKAPVPPMEENEVRKLVLSPFAVPMRDEKLDKEPLEILIDYLLKVYKISR”, the protein production result is “not failed”. “MKRFAFRVILHILLIVLFSIGSYLLFQKQLWFSTTICLILLITIGIHLYRMQFKQIALLRRLTDGLRYNDMMQTFHPPFNNKIMNEWAEELSDTLKDFRGRLLAEEIKHQYYENLLNKVDTAVLVADKAGHIEWMNQAAVTHLGQISQLPETLLKASVAHDTPVIRIEQNSTVLEMAISRTTFATQGREQQLISLKNIHSVLERNEMEAWQKLIRVLTHEIMNSITPIISLSETLSERGIPSQLGEKEYSVMLQAMQTIHRRSKGLLEFVENYRRLTRIPAPIRTQISIAELFTDLKKLFPEEEFQFEVPSPELKLNVDRTQIEQILINLLKNAREACSRKSDKKIQVKARKLSAGNTTLTISDNGEGILPDVLDKIFVPFFTTKTSGSGIGLSLCKQIMTLHEGSINVKSEVGKGSSFILTFPK”: the protein production result is listed as “failed”. With “MKRFVLLDTTAIPENGGALCLFEYGEDFVIKIQGGDGGQLMNTRMHGSEDALAQIPCSKVAGRPNSRVLIGGLGMGFTLAAALKHLGKSAKVVVAELVPGVVEWNRGPLGEKSGRPLLDPRTVIRLEDVAKVLQAEPQGFDAIMLDVDNGPEGLTQKANSWLYSSAGLAACARALRPKGILAVWSASADRQFSERLRKAGFKAEEVQVFAHGNRGTRHTIWIAEKLKA” the entry was “failed”; with “MKRIAFVGSVGAGKTTLFNALQGNYTLARKTLAVEFNDKGDIDTPGEYFSHPRWYHALITTLQDVDMLIYVHGANDPESRLPAGLLDIGVSKRQIAVISKTDMPDADVAATRKLLLETGFEEPIFELNSHDPQSVQQLVDYLASLTKQEEAGEKTHHSELEHHHHHH”, “not failed”. “MKRIKTRAITLLALCIALNIVGSNIALMLKLPIYLDSIGTVLAAAVFGPLGGMLAGGATGVIVGATTDLYSLFFMPVQLLTGLVAGLLYRRIKPGTWRSNWWLAGVISLPGTLLSTAITVILFHGITSSGSSMLVQLLLGTGMGKTMAVFLIQVGTDYLDRFITVYVVALVYRALRYKLPQAN”: the protein production entry is “failed”. Take “MKRKGVGFSLPVTVVMLVIGFIYFASVFTFIDRWFSLTSSPGIANAAAFTALALMCIYNYSIAVFRDPGRVPLNYMPDVEDPESPVHEIKRKGGDLRYCQKCSHFKPPRAHHCRVCKRCVLRMDHHCIWINNCVGHTNYKVFFVFVVYAVTACVYSLVLLVGSLTVEPQDEEEEMGSYLRTIYVISAFLLIPLSIALGVLLGWHIYLILQNKTTIEVYHEGVRAMWLAEKGGQVYKHPYDIGAYENLTLILGPNILSWLCPTSRHIGSGVRFRTAFDSIPDSSETKH”: the protein production entry is “failed”.

“MKRKLIYLFIALAATILPAHAQKFLNDALTLSNVSLWQQGNSLYVGMTVDMANLTIGSARSLSLIPLLTDGQHNVPLQEIIVNGKRREKAYLRGLAISKQESTAIIVPYNKRETFNYTQVIPYQPWMANASLQLVENLCGCGNYQEMNAQELITNDVSTEAKRLSAMSPIVAYIQPTVEVVKNRSEQYEAHLDFPVNKSVILTDFMNNHSELVNIHSMFDKIQNDKNLTVQSISIEGFASPEGPLAFNEQLSKKRAEALKDYLVKNEKASAKLYKVTFGGENWDGLVKALESSSMKDKETFLNIIKNTTNDVKRKQEIMKVGGGAPYRTMLKEIYPGLRKVNCKIDYTVVNFDVEQGRIIIRENPKYLSLNEMYQVANSYPKGSKDFVDVFDIAVRMYPTDAVANLNAAAVALSQKDINTALKYMEKADHTTAEFLNNTGVYNFLNGDIQRATAAFEQAAKLGNEAAQANLKQLQQIMNMKMSK”: the protein production entry is reported as “failed”.

In the case of “MKRKSLKSFIYVSALLVFLSGFVGVSLFVKSEVVEATTIGDDYPVKWKNLPLGGAIDDWRMYTRYCTSFVAYRLSTANNFELPSGFGNADRWGTEAMARGYKVDKNPKVGSVAWWTSTHVAWVAEVSGDNVKVEEYNYGFDGKYNTRWINKNSANGYIHFKDMPQTPVGWYNNGHYDYYYYADGTKAIGLTWVGTKRYNFDKNGAMYKNAWTNSDKYSYYSTSDGSLAVGLTWVGTKRYNFDKNGAMYKNAWTNSDKYSYYSTSDGSLAVGLTWVGTKRYNFDKNGAMYKNAWTNSDKYSYYSTSDGSLAVGHQQIGENKYIFDKNGALYKNMWVDLDGNRYYSKEDGALAIGEQIIDGITYMFDESGKLVNNLEHHHHHH”, the protein production result is reported as “not failed”. As to “MKRKTIRILLISSGLILILLVGYRLYLEYQTDIQLFLNPKASKTQLLERIRSHGFSAALLLVFLTAIMCAVPGIPTSVIGVIAGLSFGPFSGTLINVLGNSMGNLVAIFLMHHIKFLDKKTETNHWVQSIRRMKHPKIGIMVGYMIPIIPSSVINFAADTMQLPLKNLIAAIFIGVIPSSILYACGGEALFHGYNKTAVLLIVSVLLFVGLVVIIEKDRKRFQKTVL”, the protein production entry was “failed”. Consider “MKRLIGLVIVALVLLAACGSNNDKKVTIGVASNDTKAWEKVKELAKKDDIDVEIKHFSDYNLPNKALNDGDIDMNAFQHFAFLDQYKKAHKGTKISALSTTVLAPLGIYSDKIKDVKKVKDGAKVVIPNDVSNQARALKLLEAAGLIKLKKDFGLAGTVKDITSNPKHLKITAVDAQQTARALSDVDIAVINNGVATKAGKDPKNDPIFLEKSNSDAVKPYINIVAVNDKDLDNKTYAKIVELYHSKEAQKALQEDVKDGEKPVNLSKDEIKAIETSLAK”, for which the protein production result was “not failed”. “MKRLILPIACGICTVTSDAQTDKQPHPNVIFIYADDLGYKDLSCTGSRFYETPHIDKLAREGVCFTQSYAACPVSSPSRAALLTGKYPARINLTDYIPGDRAYGPHKNQRLASLPFNLHLSKDEITMAEAFRQNGYSTFMAGKWHLAESAEYYPEQNGFDINIGGNNTGHPSKGYFSPYGNPQLKDGPEGEYLTDRLTDEVIRYISEPKEKPFFVYLSYYTVHLPLQAKAEKIAKYRRKLSRAVPADSSFVKKGETYHKLVQDIPAYAAMVESLDENIGRLLDTLHRSGLDERTIVVFTSDNGGMATSNTTRNIPTSNLPLRAGKGYLYEGGIKVPAIIRWSGHLKGRQVSDTPIIGTDYYPTLLDLCGLPLLPGQHVDGVSMKPVLQGGRLSRPSLFWHYPHYSGGLGGRPSAAIREGDYKLIEFFEDHHVELYNVIQDESEEKDLSQIYPEIADGLRKKLYLWYKEVGARMPVDNPHYVSPVKDSDSFENKLEHHHHHH”: the protein production entry was “failed”. “MKRLSTLCLLAAGFFIPGQAHQARPTVLDSVYAPLKVATPPSDAYIGLSLLDNGEIRHYNYGEQAVAGTVYLSSTDHGLTWKRVNRPKEMPFADCQSPVSKEYIRLVDMGAMGVYCIRTSGGLTGGRTLTKVADRNSIMIKPPVFIRNGKRIVVAAHGGVTPKGCYTYFSDDDGLTWKCSNTVTSPDHQGGGFHKGIRWNHGAVEPTVVELKDGTLWMLMRTSQDFHYQAFSKDGGQTWGESEPSPFYGTITMPTLGRLADGRLLLFWCNTTPLPEKEGTDGVWDDVFTNRDVTHVAVSDDDGKTWKGFRELYMDPMRNDIDYAVHGGGIDRGVHQAQFVEVAPGKVLASIGQHPLHRAMMMFDVNWLYEKSRFNDFTDSLSQWSTFNYMNGIKGHCAYNRIQGCMLEPHPRKEGRQVLHLTYRPDASLVADTRGAVWNFPAMKKGTFTVSLRIPEGSHSVSLLLNDRWMNPSDTVARYQSMYELPLTRKQLGVKDDRWHEVSLEWDLLQKRPQARVWVDGRLRPLRLPLKNKSQNGISYVHFIAPPAEANPGVYLEWVRAEADGAI”: the protein production result was “failed”. With “MKRSIEDTPIVLIGAGNLATNLAKALYRKGFRIVQVYSRTEESARELAQKVEAEYTTDLAEVNPYAKLYIVSLKDSAFAELLQGIVEGKREEALMVHTAGSIPMNVWEGHVPHYGVFYPMQTFSKQREVDFKEIPFFIEASSTEDAAFLKAIASTLSNRVYDADSEQRKSLHLAAVFTCNFTNHMYALAAELLKKYNLPFDVMLPLIDETARKVHELEPKTAQTGPAIRYDENVIGNHLRMLADDPAMQRLYELLSRSIHERQ” the entry was “not failed”; with “MKRTIFLLMSILLLLTACGDGHKQTSSDKEQSEHKDNHNKNQVKQIATDKKVQGDNYRTILPFKESQARGLLQDNMANGYNGEDFESGLLELSKEIFPTNKYLYQDGQYLDKKTINAYLDPKYTKKEIDKMSEKEKKSKNANENLGLNPSHNGETDEEKIAKNSPAYLSNILEQDFYGNSDSKGKNIKGMTIGLAMNSVYYYKKEKDGETFSKDLSDKEIEKQGKQMASEMLSRLRENSDLKDIPIHFAIYKQSSQDSITPGEFIVGTTVEEGKTKINSWDNINEKAALIPSSTAADYDETLNNNFKQFNDNLQSYFSNFTQAVGKVKFVNKKAKQLTVDLPIDYYGQAETIGITQYVTEQAEKYFDKLDEYEIRIKDGNTPRALISKTKDDKEPQVHIYHN”, “failed”; with “MKRTLLAISIFAITCNASASSSPDAVSSMSDRYSTLANLEMNGGFPTETSQKILQNESYFQRASMLYQWALPIVNMKAMQEGHAELMNGTAYNKIAIYQDRLKPNSLITTPNSDVIYAMGWLDMKETGPLIIEHPAGLQSLMDDMYHHPLRGPLDKNQPGGQYLGDIGNAGPDKGKAAKFLILPPNKKREDYAQLADKYFIYESNTSEVFLFLRSFFKDMNNLEPAVNRVKEIKVYPLNGSAESMEFFNVSDVPSKSIWDNDYRFYETLNRAVQNMELATFDPYMNGVMAAIGISKGVEFTPTEKQKEMLTKAAQTGWKISKEIALNFDEKSSKTTGDTWFWKEAPSWVAHALTDKGNQYHALSDPYYHNIKTGYTNVDAITHMYTNHYSMSSGMINAKIGAGAKYAGAYKDKDLNPLIGSCNYSLHIPADVPASLFWSVTAYDAATAAGVNVENHQWPSLGDRDNPIKNSDDSVTLFFGPTAPENAQLAKNNWLQFDNDSWFSLIRFYGPQQSLFDGSWVPGEFEKINCVK”, “failed”. Turning to “MKRTVALAASLSLLWLLLSGYWHDPLLLGFGLLSVGAVVALSLRMGIVDAEGVPLRQIPGLITYLPWLAWQVVLSAITVARIVLSPKLSISPTLAAIPAAPKTAIGQVILANSITLTPGTLSLDLDDGAVLVHGLCAAGIDDLMTGEMGRRVAALDGRGAP”, the protein production entry is recorded as “failed”.

Regarding “MKRVAIFASGSGTNAEAIIQSQKAGQLPCEVALLITDKPGAKVVERVKVHEIPVCALDPKTYPSKEAYEIEVVQQLKEKQIDFVVLAGYMRLVGPTLLGAYEGRIVNIHPSLLPAFPGLHAIEQAIRANVKVTGVTIHYVDEGMDTGPIIAQEAVSIEEEDTLETLTTKIQAVEHRLYPATLHKLLSK”, the protein production entry is recorded as “not failed”.

Consider “MKRWGLIFPTLYFFFLFIMIFVFNFPREVTRQWMWIQVGGIVFMIALGLYFDGYASLKEVITIGAFTLLWLGLSFTVNIRKEYFTLLGLIIELVLDLALREGG”, for which the protein production entry is given as “failed”. As to “MKSARPRLSDAHGRRNCARRGRRPGHQPFWRLAMNIVRYPQFSTHALQNEIKHVFDRFFEHNSDTDESAVVTAQWVPRVDIKEEPKHFVLYADLPGIDPSQIEVQMDKGILSIKGERKSESSTETERFSRIERRYGSFHRRFALPDSADADGITASGHNGVLEIRIPKRPAATPRRIHVGNGQDTSDSTVQ”, the protein production result was “failed”.

The values are drawn from a protein production outcome set (Wang et al. 2014).
